Measured values reported in PMC4360655.

How the values were obtained:
[1] = test system: P15381; test: FRET or BRET; living tsA-201 cells expressing CaV1.2-EGFP (donor) and CaV1.2-tagRFP (acceptor), confocal; FRETr = RFPg/GFPg; followed during flash photolysis of caged Ca2+ at −80 mV, during a 500-ms depolarization from −80 to +10 mV (10 mM EGTA in the pipette), and at 0-5000 nM Ca2+ with 1 μM …
[2] = target: CaV1.2 channel pore-forming subunit (α1c) tagged at its C-terminus with a half of split Venus (CaV1.2-VN155(I152L) and CaV1.2-VC155) (rabbit) (UniProt P15381)

| Substance | time for FRETr to decay to 50% of the peak (T50%), with m5 [1] [s for FRETr] | CaV1.2 sparklet density after against before the depolarization that fuses CaV1.2-VN and CaV1.2-VC [2] [fold] |
| --- | --- | --- |
| CaV1.2 channel pore-forming subunit (α1c) tagged at its C-terminus with EGFP or tagRFP (CaV1.2-EGFP and CaV1.2-tagRFP) | 0.63 ± 0.23 |  |
| CaV1.2 channel pore-forming subunit (α1c) tagged at its C-terminus with a half of split Venus (CaV1.2-VN155(I152L) and CaV1.2-VC155) (from UniProt P15381 1-2171) (natural protein) |  | 10 |
